# Measurements from IntAct's records for PubMed 23917616.
# B1: Myotubularin (Homo sapiens), Q13496 (parent)
# chain: MASASTSKYNSHSLENESIKRTSRDGVNRDLTEAVPRLPGETLITDKEVIYICPFNGPIKGRVYITNYRLYLRSLETDSSLILDVPLGVISRIEKMGGATSRGENSYGLDITCKDMRNLRFALKQEGHSRRDMFEILTRYAFPLAHSLPLFAFLNEEKFNVDGWTVYNPVEEYRRQGLPNHHWRITFINKCYELCDTYPALLVVPYRASDDDLRRVATFRSRNRIPVLSWIHPENKTVIVRCSQPLVGMSGKRNKDDEKYLDVIRETNKQISKLTIYDARPSVNAVANKATGGGYESDDAYHNAELFFLDIHNIHVMRESLKKVKDIVYPNVEESHWLSSLESTHWLEHIKLVLTGAIQVADKVSSGKSSVLVHCSDGWDRTAQLTSLAMLMLDSFYRSIEGFEILVQKEWISFGHKFASRIGHGDKNHTDADRSPIFLQFIDCVWQMSKQFPTAFEFNEQFLIIILDHLYSCRFGTFLFNCESARERQKVTERTVSLWSLINSNKEKFKNPFYTKEINRVLYPVASMRHLELWVNYYIRWNPRIKQQQPNPVEQRYMELLALRDEYIKRLEELQLANSAKLSDPPTSPSSPSQMMPHVQTHF
# partner: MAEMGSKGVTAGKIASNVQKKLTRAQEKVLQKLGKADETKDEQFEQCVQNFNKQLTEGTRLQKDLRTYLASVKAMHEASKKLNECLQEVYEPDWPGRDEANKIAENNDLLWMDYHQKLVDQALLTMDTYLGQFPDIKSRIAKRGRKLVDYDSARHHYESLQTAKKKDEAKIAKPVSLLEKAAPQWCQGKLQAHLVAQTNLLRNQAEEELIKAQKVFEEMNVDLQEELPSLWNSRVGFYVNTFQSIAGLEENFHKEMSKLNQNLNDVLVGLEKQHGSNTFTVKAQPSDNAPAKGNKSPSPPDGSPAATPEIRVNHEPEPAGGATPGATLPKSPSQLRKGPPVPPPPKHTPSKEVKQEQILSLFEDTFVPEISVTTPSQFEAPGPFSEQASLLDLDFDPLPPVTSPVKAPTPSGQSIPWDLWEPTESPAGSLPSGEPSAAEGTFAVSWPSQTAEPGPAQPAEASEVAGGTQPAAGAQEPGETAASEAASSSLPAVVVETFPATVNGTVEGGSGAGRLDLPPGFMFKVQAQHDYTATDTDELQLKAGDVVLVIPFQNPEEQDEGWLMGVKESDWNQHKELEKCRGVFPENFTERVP
# Variants of: B1
# Details: with bin1_human BIN1, O00499
row,Variant,effect of a mutation on the interaction
1,C375S,disrupting interaction
